Patent US20230203467A1

What was measured:
[1] = target: VEGFR-1 on transfected endothelial cells (PAE/VEGFR-1) (UniProt P17948); assay: cell-based or functional assay
[2] = target: VEGFR-2 receptor on transfected endothelial cells (PAE/VEGFR-2) (UniProt P35968); assay: cell-based or functional assay

UniProt P17948, sequence (P17948 27-1338 limits assumed): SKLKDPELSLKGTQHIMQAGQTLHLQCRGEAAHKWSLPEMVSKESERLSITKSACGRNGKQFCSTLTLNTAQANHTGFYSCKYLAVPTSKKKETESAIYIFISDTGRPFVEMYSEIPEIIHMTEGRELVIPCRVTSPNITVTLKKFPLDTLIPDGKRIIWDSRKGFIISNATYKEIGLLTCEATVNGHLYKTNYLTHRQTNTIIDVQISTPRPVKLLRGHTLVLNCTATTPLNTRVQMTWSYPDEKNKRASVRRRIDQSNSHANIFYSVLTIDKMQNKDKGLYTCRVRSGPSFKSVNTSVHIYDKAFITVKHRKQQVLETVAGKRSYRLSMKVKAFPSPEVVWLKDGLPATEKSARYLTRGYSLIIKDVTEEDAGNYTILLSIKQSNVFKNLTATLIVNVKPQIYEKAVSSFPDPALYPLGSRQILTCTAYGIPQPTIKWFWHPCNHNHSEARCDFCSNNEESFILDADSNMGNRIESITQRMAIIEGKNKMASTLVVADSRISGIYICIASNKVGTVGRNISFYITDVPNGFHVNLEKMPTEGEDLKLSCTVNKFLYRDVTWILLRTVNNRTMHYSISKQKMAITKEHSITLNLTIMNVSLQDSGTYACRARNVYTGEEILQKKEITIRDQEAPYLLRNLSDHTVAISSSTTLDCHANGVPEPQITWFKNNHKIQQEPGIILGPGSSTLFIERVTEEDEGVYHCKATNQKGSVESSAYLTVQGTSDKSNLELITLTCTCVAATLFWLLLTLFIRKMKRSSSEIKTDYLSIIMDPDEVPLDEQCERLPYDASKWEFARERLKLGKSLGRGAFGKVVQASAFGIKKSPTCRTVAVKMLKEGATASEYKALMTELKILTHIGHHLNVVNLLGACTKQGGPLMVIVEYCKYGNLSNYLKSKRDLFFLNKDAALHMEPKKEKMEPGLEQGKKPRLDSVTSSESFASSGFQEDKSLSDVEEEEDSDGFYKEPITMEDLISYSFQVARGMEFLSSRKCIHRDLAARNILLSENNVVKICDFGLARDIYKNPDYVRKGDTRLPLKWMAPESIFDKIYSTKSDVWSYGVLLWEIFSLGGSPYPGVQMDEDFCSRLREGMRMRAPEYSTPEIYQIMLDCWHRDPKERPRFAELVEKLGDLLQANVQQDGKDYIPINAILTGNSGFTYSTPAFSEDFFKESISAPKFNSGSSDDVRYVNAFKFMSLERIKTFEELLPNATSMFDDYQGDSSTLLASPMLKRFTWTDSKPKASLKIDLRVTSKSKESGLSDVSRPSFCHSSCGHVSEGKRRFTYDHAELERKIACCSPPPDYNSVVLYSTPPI

IC50 (nM) on PEA/VEGFR-1 cells, construct pre-incubated in FBS (4 h) [1] | IC50 (nM) on PEA/VEGFR-1 cells, construct pre-incubated in PBS (4 h) [1] | IC50 (nM) on PEA/VEGFR-2 cells, construct pre-incubated in FBS (4 h) [2] | IC50 (nM) on PEA/VEGFR-2 cells, construct pre-incubated in PBS (4 h) [2] | Substance | IC50 nM, cytotoxicity on PAE/VEGFR-1 (-) control cells [1] | IC50 nM, cytotoxicity on PAE/VEGFR-2 (+) cells [2]
> 100 nM | > 100 nM | 39 nM | 8 nM | EA-GrB/VEGF121 (from UniProt P15692 27-147) |  | 
 | > 100 nM |  | 5 nM | EAPVPN-GrB/VEGF121 (from UniProt P15692 27-147) |  | 
> 100 nM | > 100 nM | > 100 nM | 4 nM | GrB/VEGF121 (from UniProt P15692 27-147) | > 1000 nM | 15.3 nM
> 100 nM | > 100 nM | 63 nM | 8 nM | LA-GrB/VEGF121 (from UniProt P15692 27-147) |  | 
> 100 nM | > 100 nM | 67 nM | 2 nM | LP-GrB/VEGF121 (from UniProt P15692 27-147) |  | 
 | > 100 nM |  | 8 nM | PVPN-GrB/VEGF121 (from UniProt P15692 27-147) |  | 
